Target: T1, Fur (Pseudomonas aeruginosa, UniProt Q03456 1-134)
T1 sequence: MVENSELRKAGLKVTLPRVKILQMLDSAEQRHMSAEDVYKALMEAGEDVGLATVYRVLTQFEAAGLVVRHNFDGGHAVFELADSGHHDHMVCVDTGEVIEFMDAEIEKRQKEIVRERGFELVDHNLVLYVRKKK
Assay: fluorescence anisotropy

B1: prrF1-30 (dsDNA)
DNA 1: GACATGGAAATGAGAATCATTATTATGTC
DNA 2: GACATAATAATGATTCTCATTTCCATGTC
- Kd: 50 ± 10 nM
